Results published in US6759384 (AVENTIS PHARMACEUTICALS, dated 2004).
Non-standard residues stand in square brackets, D forms with d. No end group written: not given here. *: point of attachment. Phe(4-Cl) = N[C@@H](Cc1ccc(Cl)cc1)C(=O)O; Phe(4-F) = N[C@@H](Cc1ccc(F)cc1)C(=O)O; dTic = O=C(O)[C@H]1Cc2ccccc2CN1; Dab = NCC[C@H](N)C(=O)O; Tfa = O=C(C(F)(F)F)*; βAla = NCCC(=O)O; Sar = CNCC(=O)O; For = O=C*

Biological target: human factor Xa (Enzyme Research Laboratories, Inc.) (human, UniProt P00742 41-179; P00742 235-488, limits assumed)
Assay: chromogenic FXa inhibition
Method: TBS-P buffer (50 mM Tris-Cl, pH 7.8, 200 mM NaCl, 0.05% (w/v) PEG-8000, 0.02% (w/v) NaN_3) was used for this assay. The IC$50$ was determined by combining in appropriate wells of a Costar half-area microtiter plate 25 μl human factor Xa (Enzyme Research Laboratories, Inc.; South Bend Ind.) in TBS-P; 40 μl 10% (v/v) DMSO in TBS-P (uninhibited control) or various concentrations of a peptide to be tested diluted in 10% (v/v) DMSO in TBS-P; and substrate S-2765 (Nα-benzyloxycarbonyl-D-Arg-Gly-L-Arg-p-nitroanilide; Kabi Pharmacia, Inc.; Franklin Ohio) in TBS-P.
The assays were performed by pre-incubating the peptide inhibitor plus enzyme for 10 min, then the assay was initiated by adding substrate to obtain a final volume of 100 μl. The initial velocity of chromogenic substrate hydrolysis was measured by the change in absorbance at 405 nm using a Bio-tek Instruments kinetic plate reader (Ceres UV900HDi) at 25° C. during the linear portion of the time course (usually 1–5 min after addition of substrate). The concentration of inhibitor that caused a 50% decrease in the rate of substrate hydrolysis was predicted by linear regression after plotting the relative rates of hydrolysis (compared to the uninhibited control) versus the log of the peptide concentration. The enzyme concentration was 0.5 nM and substrate concentration was 140 μM.

Sequence of human factor Xa (Enzyme Research Laboratories, Inc.) (P00742 41-179 limits assumed, chain 1 of 2): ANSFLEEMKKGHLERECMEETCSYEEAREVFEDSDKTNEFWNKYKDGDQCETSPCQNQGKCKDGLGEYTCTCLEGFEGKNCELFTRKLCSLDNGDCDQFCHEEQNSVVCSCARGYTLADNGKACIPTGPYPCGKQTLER
Sequence of human factor Xa (Enzyme Research Laboratories, Inc.) (P00742 235-488 limits assumed, chain 2 of 2): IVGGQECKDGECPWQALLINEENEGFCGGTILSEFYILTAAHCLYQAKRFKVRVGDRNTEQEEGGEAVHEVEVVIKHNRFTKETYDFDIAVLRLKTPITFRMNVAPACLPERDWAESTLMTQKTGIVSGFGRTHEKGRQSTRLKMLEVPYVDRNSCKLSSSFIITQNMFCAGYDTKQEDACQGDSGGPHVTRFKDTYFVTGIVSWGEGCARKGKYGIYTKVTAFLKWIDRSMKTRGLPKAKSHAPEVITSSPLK

Binder	Ki
{(pOH)C6H4‑CH2CH2CO}-IRLA-NH2 [(pOH)C6H4-CH2CH2CO-I-R-L-A-NH2]	< 100 µM
[Phe(4-Cl)]IRI[Sar]-NH2 (N-terminus assumed; SMILES CC[C@H](C)[C@H](NC(=O)[C@@H](N)Cc1ccc(Cl)cc1)C(=O)N[C@@H](CCCNC(=N)N)C(=O)N[C@H](C(=O)N(C)CC(N)=O)[C@@H](C)CC) [F(pCl)-I-R-I-Sar-NH2]	< 100 µM
[βAla]YIRG (also: cyclisation unknown (underlining lost), may be cyclic; underlining lost) [βAla-Y-I-R-G]	< 100 µM
YIRLP (N-term Ac; D-Tyr at 1; C-term NH2) [Ac-y-I-R-L-P-NH2]	< 100 µM
{CH3CH2‑O‑CO}-YIRLP-NH2 [CH3CH2-O-CO-Y-I-R-L-P-NH2]	< 100 µM
FIRLPHYG-NH2 [F-I-R-L-P-H-Y-G-NH2]	< 100 µM
Ac-YIRLAAFT-NH2 [Ac-Y-I-R-L-A-A-F-T-NH2]	< 100 µM
GYIRD-NH2 [G-Y-I-R-D-NH2]	< 100 µM
GYIRF-NH2 [G-Y-I-R-F-NH2]	< 100 µM
GYIRV-NH2 [G-Y-I-R-V-NH2]	< 100 µM
GYIRY-NH2 [G-Y-I-R-Y-NH2]	< 100 µM
GYIRS-NH2 [G-Y-I-R-S-NH2]	< 100 µM
GYIRW-NH2 [G-Y-I-R-W-NH2]	< 100 µM
[dTic]IRLAAFT-NH2 (N-terminus assumed; SMILES CC[C@H](C)[C@H](NC(=O)[C@H]1Cc2ccccc2CN1)C(=O)N[C@@H](CCCNC(=N)N)C(=O)N[C@@H](CC(C)C)C(=O)N[C@@H](C)C(=O)N[C@@H](C)C(=O)N[C@@H](Cc1ccccc1)C(=O)N[C@H](C(N)=O)[C@@H](C)O) [D-Tic-I-R-L-A-A-F-T-NH2]	< 100 µM
GYIRLPAM-NH2 [G-Y-I-R-L-P-A-M-NH2]	< 100 µM
Cl2CHCO-YIRLP-NH2 [Cl2CHCO-Y-I-R-L-P-NH2]	< 100 µM
GYIRLPSQ-NH2 [G-Y-I-R-L-P-S-Q-NH2]	< 100 µM
{CF2H‑CO}-YIRLP-NH2 [CF2H-CO-Y-I-R-L-P-NH2]	< 100 µM
Ac-YIRLP-NH2 (also: reduced pseudo peptide bond ψ(CH2NH) between I2 and R3) [Ac-Y-I-{ψ(CH2NH)}-R-L-P-NH2]	< 100 µM
{CF3‑CF2CO}-YIRLP-NH2 [CF3-CF2CO-Y-I-R-L-P-NH2]	< 100 µM
GGYIRG-NH2 [G-G-Y-I-R-G-NH2]	< 100 µM
Ac-Y-I-R-L-P-Dab(Ac-Y-I-R-L-P)-OH (also: branched: chain 2 attached to the Dab6 side-chain N, branched peptide) peptide: Ac-YIRLP[Dab]-OH Ac-YIRLP	< 100 µM
{CH3O‑CO}-YIRLP-NH2 [CH3O-CO-Y-I-R-L-P-NH2]	< 100 µM
{CH3‑SO2}-YIRLP-NH2 [CH3-SO2-Y-I-R-L-P-NH2]	< 100 µM
Ac-YIRL [Ac-Y-I-R-L]	< 100 µM
Tfa-[N(iBu)Y]IRG-NH2 [Tfa-(iBu)Y-I-R-G-NH2]	< 100 µM
Ac-YIRI [Ac-Y-I-R-I]	< 100 µM
FIRL-NH2 (probably F-I-R-L-NH2) [F-I-R-L-N-H2]	< 100 µM
YIRI-NH2 [Y-I-R-I-NH2]	< 100 µM
Ac-YNRL-NH2 [Ac-Y-N-R-L-NH2]	< 100 µM

Next, values leading:

Ki	Binder
< 100 µM	GYIRLPQT-NH2 [G-Y-I-R-L-P-Q-T-NH2]
< 100 µM	[Phe(4-F)]IRLP-NH2 (N-terminus assumed; SMILES CC[C@H](C)[C@H](NC(=O)[C@@H](N)Cc1ccc(F)cc1)C(=O)N[C@@H](CCCNC(=N)N)C(=O)N[C@@H](CC(C)C)C(=O)N1CCC[C@H]1C(N)=O, also called Phe(pF)-I-R-L-P-NH) [F(pF)-I-R-L-P-NH2]
< 100 µM	[βAla]YIRG-NH2 (N-terminus assumed; SMILES CC[C@H](C)[C@H](NC(=O)[C@H](Cc1ccc(O)cc1)NC(=O)CCN)C(=O)N[C@@H](CCCNC(=N)N)C(=O)NCC(N)=O) [βAla-Y-I-R-G-NH2]
< 100 µM	For-YIRLP-NH2 [For-Y-I-R-L-P-NH2]
< 100 µM	EYIRLPK-NH2 (also: cyclisation unknown (underlining lost), may be cyclic; underlining lost) [E-Y-I-R-L-P-K-NH2]
< 100 µM	CYIRLC-NH2 (also: cyclisation unknown (underlining lost), may be cyclic (disulfide); underlining lost) [C-Y-I-R-L-C-NH2]
< 100 µM	{CH3‑CHCl‑CO}-YIRLP-NH2 [CH3-CHCl-CO-Y-I-R-L-P-NH2]
< 100 µM	{CClF2‑CO}-YIRLP-NH2 [CClF2-CO-Y-I-R-L-P-NH2]
< 100 µM	XIRLP (N,N-diethyl (Et(Et)) on Y1; C-term NH2) [Et(Et)Y-I-R-L-P-NH2]
< 100 µM	EYIRLK-NH2 (also: cyclisation unknown (underlining lost), may be cyclic; underlining lost) [E-Y-I-R-L-K-NH2]
< 100 µM	IRLP (N-term (pOH)C6H4-CH2CH2CO; C-term NH2) [(pOH)C6H4-CH2CH2CO-I-R-L-P-NH2]
< 100 µM	Ac-YKRLE-NH2 (also: cyclisation unknown (underlining lost), may be cyclic; underlining lost) [Ac-Y-K-R-L-E-NH2]
< 100 µM	GYIRLPPV-NH2 [G-Y-I-R-L-P-P-V-NH2]
< 100 µM	For-[dY]IRLP-NH2 [For-y-I-R-L-P-NH2]
< 100 µM	FIRLYVWN-NH2 [F-I-R-L-Y-V-W-N-NH2]
